Assay results published in patent publication US20030219436A1.

B1: human CD83 murine Ig fusion protein (human CD83 extracellular domain upstream of the murine IgG2a Fc domain) (Fc fusion)
chain: MSRGLQLLLLSCAYSLAPATPEVKVACSEDVDLPCTAPWDPQVPYTVSWVKLLEGGEERMETPQEDHLRGQHYHQKGQNGSFDAPNERPYSLKIRNTTSCNSGTYRCTLQDPDGQRNLSGKVILRVTGCPAQRKEETFKKYRAERSEPRGPTIKPCPPCKCPAPNSAGTSSVFIFPPKIKDVLMISLSPIVTCVVVDVSEDDPDVQISWFVNNVEVHTAQTQTHREDYNSTLRVVSALPIQHQDWMSGKEFKCKVNNKDLPAPIERTISKPKGSVRAPQVYVLPPPEEEMTKKQVTLTCMVTDFMPEDIYVEWTNNGKTELNYKNTEPVLDSDGSYFMYSKLRVEKKNWVERNSYSCSVVHEGLHNHHTTKSFSRTPGK

Tests used:
[1] = target: ligand(s) that bind to CD83, on mouse cells (PBMC monocytes, lymph node lymphocytes, splenocytes); assay: flow cytometry on mouse PBMC
[2] = target: ligand(s) that bind to CD83, on mouse cells (PBMC monocytes, lymph node lymphocytes, splenocytes); assay: flow cytometry on mouse splenocytes
[3] = target: ligand(s) that bind to CD83, on mouse cells (PBMC monocytes, lymph node lymphocytes, splenocytes); assay: flow cytometry on mouse lymph node lymphocytes
[4] = target: ligand(s) that bind to CD83, on human peripheral blood cells (monocytes, some lymphocytes); assay: flow cytometry on fresh human PBMC, biotinylated CD83Ig + PE streptavidin

Molecule	percent of cells bound (monocytes in peripheral blood) [1] [%]	percent of cells bound (non-T cell population of splenocytes) [2] [%]	percent of cells bound (lymphocytes from lymph nodes) [3] [%]	percent of cells bound (CD3+ cells, lymphocyte gate) [4] [%]	percent of cells bound (CD3- cells, lymphocyte gate) [4] [%]	percent of cells bound (larger cell scatter gate, monocytes) [4] [%]
human CD83-hIgG1 fusion protein (extracytoplasmic domain of human CD83 with a human IgG1 tail) (Fc fusion)	90	15	< 5	< 1	4	> 75
B1	90	15	< 5	–	–	–
